Results on four molecules are retold here after PMC5028754, “Structural studies of the yeast DNA damage-inducible protein Ddi1 reveal domain architecture of this eukaryotic protein family” (Scientific Reports, 2016).

For data set [1], the target named is T1, bovine ubiquitin (bovine, UniProt P0CG53 1-76).
T1 construct: ubiquitin, bovine (cut product of the ubiquitin precursors); source: bought: Sigma, cat. no; U6253
In words: ITC; ubiquitin or K48-Ub2 injected from the syringe into the Ddi1 construct in the sample cell; 50 mM HEPES, pH 7.4, 150 mM NaCl, 25 °C; VP-ITC; one-site model varying N, Kd and ΔH; full-length Ddi1 with ubiquitin also fitted to a two-sites model with N fixed to 1.0. The following applies: both partners purified. Background: ITC needs no label: the signal is the heat of the interaction.

Data set [2] deals with the molecule itself. In words: crystal structure; Ddi1 RVP 185-325, 1.8 Å; crystallized in 0.1 M phosphate-citrate, pH 4.2, 0.4 M NaCl, 20% PEG 8000; two chains in the asymmetric unit.

B1: Ddi1 UBL-RVP (1-325) (domain or fragment, S. cerevisiae, UniProt P40087 1-325, looked up)
chain: MDLTISNELTGEIYGPIEVSEDMALTDLIALLQADCGFDKTKHDLYYNMDILDSNRTQSLKELGLKTDDLLLIRGKISNSIQTDAATLSDEAFIEQFRQELLNNQMLRSQLILQIPGLNDLVNDPLLFRERLGPLILQRRYGGYNTAMNPFGIPQDEYTRLMANPDDPDNKKRIAELLDQQAIDEQLRNAIEYTPEMFTQVPMLYINIEINNYPVKAFVDTGAQTTIMSTRLAKKTGLSRMIDKRFIGEARGVGTGKIIGRIHQAQVKIETQYIPCSFTVLDTDIDVLIGLDMLKRHLACVDLKENVLRIAEVETSFLSEAEIPK
notes: Contains the RVP domain; also called UBL-RVP construct (without the UBA)
For orientation: Kd means a measure of binding affinity in units of concentration. A high value points to lower affinity. Turning to B1, binding in data set [1] was put at a Kd of 310 µM.

B2: Ddi1 RVP (residues 185-325) (domain or fragment, S. cerevisiae, UniProt P40087 185-325, looked up)
chain: EQLRNAIEYTPEMFTQVPMLYINIEINNYPVKAFVDTGAQTTIMSTRLAKKTGLSRMIDKRFIGEARGVGTGKIIGRIHQAQVKIETQYIPCSFTVLDTDIDVLIGLDMLKRHLACVDLKENVLRIAEVETSFLSEAEIPK
notes: MALDI-TOF 16,320 Da (predicted 16,313 Da); also called RVP domain; Ddi1 retroviral protease-like domain; source: E. coli BL21(DE3), purified (glutathione-sepharose, 3C cleavage, gel filtration); not shown: GST, N-terminal, cleaved
What is called stoichiometry N is a count of units in the complex or per binding partner. Consider B2, for which the “stoichiometry N” value in data set [2] was found to be 2.

B3: Ddi1 RVP-UBA (180-428) (domain or fragment, S. cerevisiae, UniProt P40087 180-428, looked up)
chain: QQAIDEQLRNAIEYTPEMFTQVPMLYINIEINNYPVKAFVDTGAQTTIMSTRLAKKTGLSRMIDKRFIGEARGVGTGKIIGRIHQAQVKIETQYIPCSFTVLDTDIDVLIGLDMLKRHLACVDLKENVLRIAEVETSFLSEAEIPKSFQEGLPAPTSVTTSSDKPLTPTKTSSTLPPQPGAVPALAPRTGMGPTPTGRSTAGATTATGRTFPEQTIKQLMDLGFPRDAVVKALKQTNGNAEFAASLLFQ
notes: Ddi1 of Saccharomyces cerevisiae, residues 180-428 (RVP to UBA, lacks the UBL), cloned into pET16b; Contains the RVP domain; also called RVP-UBA construct (without the UBL)
Turning to B3, the equilibrium dissociation constant (Kd) in data set [1] amounted to 43 µM.

B4: full-length yeast Ddi1 (natural protein, S. cerevisiae, UniProt P40087 1-428, looked up)
chain: MDLTISNELTGEIYGPIEVSEDMALTDLIALLQADCGFDKTKHDLYYNMDILDSNRTQSLKELGLKTDDLLLIRGKISNSIQTDAATLSDEAFIEQFRQELLNNQMLRSQLILQIPGLNDLVNDPLLFRERLGPLILQRRYGGYNTAMNPFGIPQDEYTRLMANPDDPDNKKRIAELLDQQAIDEQLRNAIEYTPEMFTQVPMLYINIEINNYPVKAFVDTGAQTTIMSTRLAKKTGLSRMIDKRFIGEARGVGTGKIIGRIHQAQVKIETQYIPCSFTVLDTDIDVLIGLDMLKRHLACVDLKENVLRIAEVETSFLSEAEIPKSFQEGLPAPTSVTTSSDKPLTPTKTSSTLPPQPGAVPALAPRTGMGPTPTGRSTAGATTATGRTFPEQTIKQLMDLGFPRDAVVKALKQTNGNAEFAASLLFQ
notes: Ddi1 of Saccharomyces cerevisiae, full length, cloned into pET16b; ITC concentration calculated to monomer; also called Ddi1 FL; DNA damage-inducible protein Ddi1
The molecule B4 registered an equilibrium dissociation constant (Kd) in data set [1] of 320 µM.
